Earlier results as cited in patent publication US9700485B2, “Delamination resistant pharmaceutical glass containers containing active pharmaceutical ingredients” (Corning Incorporated, priority 2013, dated 2017).
Read-outs that look alike come from different tables or passages of the source.

How the values were obtained:
[1] = shaking test, 5 samples, cited from earlier work
[2] = in use test, 10 samples, cited from earlier work
HT-29 cells = conditions: cited from earlier work
human IL-17 [3] = biological target: T1, human IL-17 (Homo sapiens, UniProt Q16552); conditions: cited from earlier work; for Kd: read-out: KD or binding affinity
DiFi cells [4] = conditions: 72 hours; cited from earlier work
EGFR [5] = biological target: T2, EGFR (Homo sapiens, UniProt P00533); conditions: cited from earlier work
BxPC-3 cells = conditions: 1.0 mg/mouse/injection; out of 8 mice; cited from earlier work
EGFR [6] = biological target: T2, EGFR; parameters: endogenous in cells; host or cells: A431; inhibition of EGFR phosphorylation: dose or concentration left out as unconfirmed; conditions: cited from earlier work
A431 and BxPC3 xenograft = A431 and BxPC3 xenograft sections; cited from earlier work
MAP kinases p44/p42 = conditions: A431, BxPC3 and HT-29 cells; EGF stimulation; cited from earlier work
EGFR on HT29 cells = biological target: T3, EGFR on HT29 cells (Homo sapiens, UniProt P00533); conditions: 10 to 100 nM; cited from earlier work
T3 construct: HT29 cells were seeded at 2×10^4 cells per well; endogenous in cells; host or cells: HT29

A431 cells = conditions: cited from earlier work; for tumor growth: three times per week
EGFR-AP fusion protein = conditions: cited from earlier work; for Koff / Kon: BIAcore, immobilized EGFR-AP fusion protein
DiFi cells [7] = conditions: cited from earlier work
EGFR [8] = biological target: T2, EGFR; parameters: phosphorylation assay, was carried out using BxPC3 or A431 cells; endogenous in cells; host or cells: BxPC3 or A431; conditions: BxPC3 and A431 cells; vs control antibody; cited from earlier work
[9] = 40° C. up to 14 days; DOE; cited from earlier work
[10] = −20° C. up to 16 days; DOE; cited from earlier work
[11] = lyophilized, 4° C., 40° C. and 50° C. up to 4 months; cited from earlier work
[12] = cited from earlier work
[13] = 300 RPM, room temperature, 72 hours; cited from earlier work
[14] = cited from earlier work; for particulate counts =10 μm/mL / particulate counts =25 μm/mL / particulate counts =50 μm/mL: HIAC
[15] = pre and post lyophilized, 0.1 mg/mL; cited from earlier work
human IL-17 [16] = biological target: T1, human IL-17; conditions: as characterized in the description, cited from earlier work
hTNFSF13b = biological target: T4, hTNFSF13b (Homo sapiens, UniProt Q9Y275); conditions: as characterized in the description (e.g.); cited from earlier work
T4 construct: purchased Research Diagnostics, Inc., Flanders, N.J

[17] = After Lyophilization, reconstituted to 5 mg/mL
[18] = Before Lyophilization, diluted to 5 mg/mL

T1 sequence (Q16552 24-155): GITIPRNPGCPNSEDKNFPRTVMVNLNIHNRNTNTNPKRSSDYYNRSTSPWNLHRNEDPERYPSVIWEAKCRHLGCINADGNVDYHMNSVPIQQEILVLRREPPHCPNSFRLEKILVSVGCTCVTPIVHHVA
T4 sequence (Q9Y275 134-285 limits assumed): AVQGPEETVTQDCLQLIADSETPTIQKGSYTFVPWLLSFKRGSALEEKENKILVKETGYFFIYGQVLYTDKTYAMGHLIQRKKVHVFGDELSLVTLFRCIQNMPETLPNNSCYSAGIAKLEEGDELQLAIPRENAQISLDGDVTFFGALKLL

21^A-Gly-30^Ba-L-Arg-30^B-L-Arg human insulin [Insulin glargine]
Number of Vials >15 FNU, 0 days ([1]; storage for 1 month at 5° C.): 0
Number of Vials >15 FNU, 0.5 days ([1]; storage for 1 month at 5° C.): 0
Number of Vials >15 FNU, 1 day ([1]; storage for 1 month at 5° C.): 0
Number of Vials >15 FNU, 2 days ([1]; storage for 1 month at 5° C.): 2
Number of Vials >15 FNU, 3 days ([1]; storage for 1 month at 5° C.): 3
Number of Vials >15 FNU, 4 days ([1]; storage for 1 month at 5° C.): 3
Number of Vials >15 FNU, 6 days ([1]; storage for 1 month at 5° C.): 4
Number of Vials >15 FNU, 8 days ([1]; storage for 1 month at 5° C.): 4
Number of Vials >15 FNU, 10 days ([1]; storage for 1 month at 5° C.): 4
Number of Vials >15 FNU, 0 days ([1]; storage for 1 month at 25° C.): 0
Number of Vials >15 FNU, 0.5 days ([1]; storage for 1 month at 25° C.): 0
Number of Vials >15 FNU, 1 day ([1]; storage for 1 month at 25° C.): 0
Number of Vials >15 FNU, 2 days ([1]; storage for 1 month at 25° C.): 1
Number of Vials >15 FNU, 3 days ([1]; storage for 1 month at 25° C.): 1
Number of Vials >15 FNU, 4 days ([1]; storage for 1 month at 25° C.): 1
Number of Vials >15 FNU, 6 days ([1]; storage for 1 month at 25° C.): 1
Number of Vials >15 FNU, 8 days ([1]; storage for 1 month at 25° C.): 2
Number of Vials >15 FNU, 10 days ([1]; storage for 1 month at 25° C.): 3
Number of Vials >15 FNU, 0 days ([1]; storage for 1 month at 37° C.): 0
Number of Vials >15 FNU, 0.5 days ([1]; storage for 1 month at 37° C.): 0
Number of Vials >15 FNU, 1 day ([1]; storage for 1 month at 37° C.): 0
Number of Vials >15 FNU, 2 days ([1]; storage for 1 month at 37° C.): 2
Number of Vials >15 FNU, 3 days ([1]; storage for 1 month at 37° C.): 5
Number of Vials >15 FNU, 4 days ([1]; storage for 1 month at 37° C.): 5
Number of Vials >15 FNU, 6 days ([1]; storage for 1 month at 37° C.): 5
Number of Vials >15 FNU, 8 days ([1]; storage for 1 month at 37° C.): 5
Number of Vials >15 FNU, 10 days ([1]; storage for 1 month at 37° C.): 5
Number of vials with particle formation after 7 days ([2]; storage for 1 month at 37° C.): 0
Number of vials with particle formation after 14 days ([2]; storage for 1 month at 37° C.): 10
Number of vials with particle formation after 21 days ([2]; storage for 1 month at 37° C.): 10
Number of vials with particle formation after 28 days ([2]; storage for 1 month at 37° C.): 10
Number of vials with particle formation after 7 days ([2]; storage for 3 months at 5° C.): 7
Number of vials with particle formation after 14 days ([2]; storage for 3 months at 5° C.): 10
Number of vials with particle formation after 21 days ([2]; storage for 3 months at 5° C.): 10
Number of vials with particle formation after 28 days ([2]; storage for 3 months at 5° C.): 10
Number of vials with particle formation after 7 days ([2]; storage for 3 months at 25° C.): 9
Number of vials with particle formation after 14 days ([2]; storage for 3 months at 25° C.): 10
Number of vials with particle formation after 21 days ([2]; storage for 3 months at 25° C.): 10
Number of vials with particle formation after 28 days ([2]; storage for 3 months at 25° C.): 10
Number of vials with particle formation after 7 days ([2]; storage for 3 months at 37° C.): 5
Number of vials with particle formation after 14 days ([2]; storage for 3 months at 37° C.): 9
Number of vials with particle formation after 21 days ([2]; storage for 3 months at 37° C.): 10
Number of vials with particle formation after 28 days ([2]; storage for 3 months at 37° C.): 10
Number of vials with particle formation after 7 days ([2]; storage for 6 months at 5° C.): 7
Number of vials with particle formation after 14 days ([2]; storage for 6 months at 5° C.): 10
Number of vials with particle formation after 21 days ([2]; storage for 6 months at 5° C.): 10
Number of vials with particle formation after 28 days ([2]; storage for 6 months at 5° C.): 10
Number of vials with particle formation after 7 days ([2]; storage for 6 months at 25° C.): 10
Number of vials with particle formation after 14 days ([2]; storage for 6 months at 25° C.): 10
Number of vials with particle formation after 21 days ([2]; storage for 6 months at 25° C.): 10
Number of vials with particle formation after 28 days ([2]; storage for 6 months at 25° C.): 10
Number of vials with particle formation after 7 days ([2]; storage for 6 months at 37° C.): 10
Number of vials with particle formation after 14 days ([2]; storage for 6 months at 37° C.): 10
Number of vials with particle formation after 21 days ([2]; storage for 6 months at 37° C.): 10
Number of vials with particle formation after 28 days ([2]; storage for 6 months at 37° C.): 10

Human IL-17: recombinant human IL-17 (R&D Systems)
AVG GROα (HT-29 cells; Human IL-17 0.10 ng/mL): 205.8 pg/mL
AVG GROα (HT-29 cells; Human IL-17 12.00 ng/mL): 960.0 pg/mL
AVG GROα (pg/mL) (HT-29 cells; Human IL-17 60.00 ng/mL): 1,556.0 pg/mL
AVG GROα (pg/mL) (HT-29 cells; Human IL-17 300.00 ng/mL): 2,047.5 pg/mL
AVG GROα (pg/mL) (HT-29 cells; Human IL-17 1500.00 ng/mL): 2,420.4 pg/mL

IL-17 receptor Fc-fusion protein: IL-17 receptor Fc-fusion protein (R&D #177-IR)
fast off-rate (human IL-17 [3]; Bivalent analyte model, 25° C.): 20.3 s⁻¹
on-rate (human IL-17 [3]; Bivalent analyte model, 25° C.): 106000 M⁻¹ s⁻¹
slow off-rate (human IL-17 [3]; Bivalent analyte model, 25° C.): 0.000163 s⁻¹
Kd (human IL-17 [3]; from fast off-rate): 190000 nM
Kd (human IL-17 [3]; from slow off-rate): 1.5 nM

IMC-11F8: fully human monoclonal antibody (IgG1) that binds to human EGFR
inhibition of cell proliferation (MTT) (DiFi cells [4]): as potent an inhibitor of cell proliferation as IMC-C225
binding to EGFR (ELISA) (EGFR [5]): comparable binding to EGFR
tumor regression (BxPC-3 cells): 5
inhibition of EGFR phosphorylation (EGFR [6]; A431, BxPC3, HT-29, lowest antibody concentration tested): Greater than 70%
EGFR phosphorylation (Western blot) (EGFR [6]; A431 cells): inhibits EGFR phosphorylation
Ki-67 positive cells (A431 and BxPC3 xenograft): reduced the percentage of Ki-67 positive cells across the entire tumor section
tumor cell density and necrotic area (IHC) (A431 and BxPC3 xenograft): markedly reduced the tumor cell density and increased the area of necrotic acellular debris within the tumors
p44/42 MAP kinases phosphorylation (MAP kinases p44/p42): blocked p44/42 MAP kinases phosphorylation following EGF stimulation in A431, BxPC3 and HT-29 cells in a dose-dependent manner
inhibition of ^125I-EGF binding (EGFR on HT29 cells): as efficient as IMC-C225 in inhibiting ^125I-EGF binding to EGFR on HT29 cells
tumor growth (A431 cells; 0.3 mg dose i.p.): progression of tumor growth is retarded
tumor growth (A431 cells; 1 mg dose i.p.): as effective as IMC-C225 (CETUXIMAB) in suppressing or inhibiting tumor growth as compared to control animals
tumor regressions (A431 cells; 1.0 mg/mouse/injection, out of 8 animals): 6
Koff (EGFR-AP fusion protein; Format Fab): 36.7 ± 8.5 10^−4s^−1
Kon (EGFR-AP fusion protein; Format Fab): 22.9 ± 9.9 10^5 M^−1s^−1
Kd (EGFR-AP fusion protein; Format Fab, calculated as koff/kon): 1.78 ± 0.5 nM
Koff (EGFR-AP fusion protein; Format IgG): 5.8 ± 2.2 10^−4s^−1
Kon (EGFR-AP fusion protein; Format IgG): 18.6 ± 7.7 10^5 M^−1s^−1
ADCC activity (DiFi cells [7]): mediate cell death via activation of the Antibody Dependent Cellular Cytotoxicity
phosphorylation of EGFR (KIRA) (EGFR [8]): marked decrease in phosphorylation of EGFR

IMC-1121B: fully human monoclonal (IgG1) anti-VEGFR-2 (flk-1) antibody
optimal buffer [9]: histidine at pH 6.0
optimal pH [10]: 6.0

IMC-A12: fully human IgG1/λ monoclonal antibody binding insulin-like growth factor-I receptor (IGF-IR)
rate of monomer change [11]: smallest at lowest IMC-A12 concentration and at highest trehalose to IMC-A12 ratio
percent monomer ([12]; −20° C. and −70° C. up to 3 months, PBS and Citrate formulations): The percent monomer did not change with time in either formulation
percent monomer as a function of pH ([12]; −20° C. and −70° C., three weeks): The pH did not have significant effect on percent monomer
percent loss and percent monomer as a function of pH [13]: Percent loss was least and percent monomer was highest between pH 6.0-7.0
particulate counts =10 μm/mL [14, 17]: 38.67 mL⁻¹
particulate counts =25 μm/mL [14, 17]: 0.33 mL⁻¹
particulate counts =50 μm/mL [14, 17]: 0.00 mL⁻¹
particulate counts =10 μm/mL [14, 18]: 26.33 mL⁻¹
particulate counts =25 μm/mL [14, 18]: 1.67 mL⁻¹
particulate counts =50 μm/mL [14, 18]: 0.00 mL⁻¹
particulate counts (HIAC) ([14]; before and after lyophilization, 5 mg/mL): The particulate counts did not changed significantly
secondary structure (circular dichorism) [15]: Secondary structure of IMC-A12 was not altered because of lyophilization

LY2439821: humanized anti-IL-17 (IL-17A) monoclonal antibody
koff rate from human IL-17 (human IL-17 [16]): less than 2×10^−5 s^−1
Kd (human IL-17 [16]; read-out: binding affinity (KD) for human IL-17): < 0.007 nM

B1: LY2127399: human monoclonal antibody that specifically binds to TNFSF13b polypeptides (antibody, chains of the INN, looked up, V domains shown)
VH: QVQLQQWGAGLLKPSETLSLTCAVYGGSFSGYYWSWIRQPPGKGLEWIGEINHSGSTNYNPSLKSRVTISVDTSKNQFSLKLSSVTAADTAVYYCARGYYDILTGYYYYFDYWGQGTLVTVSS
VL: EIVLTQSPATLSLSPGERATLSCRASQSVSRYLAWYQQKPGQAPRLLIYDASNRATGIPARFSGSGSGTDSTLTISSLEPEDFAVYYCQQRSNWPRTFGQGTKVEIK
Kd (hTNFSF13b): ≤ 10 nM
